# Assay results published in article PMC10527986.
# Tests used:
# [1] = biological target: hMPV pre-fusion F protein (A2 strain; A185P, A113C/A339C, RRRR furin site) (human metapneumovirus, A2 strain) (UniProt Q6WB98); test: SEC
# [2] = biological target: hMPV pre-fusion F protein (A2 strain; A185P, A113C/A339C, RRRR furin site) (human metapneumovirus, A2 strain) (UniProt Q6WB98); test: cryo-EM structure
substance,measurement,setting,value
"hMPV pre-fusion F protein (A2 strain; A185P, A113C/A339C, RRRR furin site) (from UniProt Q6WB98 19-539) (natural protein)",stoichiometry N,[1],3
same,stoichiometry N,[2],2
